Changes are numbered by the printed parent chain. In names and notes the source's numbering stands. One block for each binder: values may come before it.
Target: F-actin assembled from rabbit skeletal muscle G-actin (rabbit, UniProt P68135 1-377)
Test: co-sedimentation; purified GST or GST-Swiprosin-1 proteins incubated with 5 uM G-actin in actin polymerization buffer (MgCl2, KCl, ATP) at 25 C to assemble filaments; ultracentrifuged at 45,000 rpm; supernatant and pellet by SDS-PAGE, Coomassie
Conditions: both partners purified

- binding result: binds
B1: GST-Swiprosin-1 fusion protein (wild type) (natural protein)
chain: MATDELATKLSRRLQMEGEGGGETPEQPGLNGAAAAAAGAPDEAAEALGSADCELSAKLLRRADLNQGIGEPQSPSRRVFNPYTEFKEFSRKQIKDMEKMFKQYDAGRDGFIDLMELKLMMEKLGAPQTHLGLKNMIKEVDEDFDSKLSFREFLLIFRKAAAGELQEDSGLCVLARLSEIDVSSEGVKGAKSFFEAKVQAINVSSRFEEEIKAEQEERKKQAEEMKQRKAAFKELQSTFK
notes: Swiprosin-1 (EF hand domain containing 2, EFHD2), human (hSwiprosin-1); Cloned into pGEX4T1; also called GST-Swiprosin-1-WT; GST-Sw-WT; source: purified GST fusion protein (pGEX4T1); also used on agarose beads

- binding result: binds
B2: GST-Swiprosin-1 S183E (phosphorylation-mimicking mutant) (natural protein)
chain: B1 chain with S183E
notes: Swiprosin-1 (EFHD2), human (hSwiprosin-1); also called GST-Sw-S183E; source: purified GST fusion protein (pGEX4T1)

- binding result: binds
B3: GST-Swiprosin-1 S183A (phosphorylation-deficient mutant) (natural protein)
chain: B1 chain with S183A
notes: Swiprosin-1 (EFHD2), human (hSwiprosin-1); also called GST-Sw-S183A; source: purified GST fusion protein (pGEX4T1)

From article PMC3830201, “Swiprosin-1 modulates actin dynamics by regulating the F-actin accessibility to cofilin” (Cellular and Molecular Life Sciences: CMLS, 2013)
